Assay results from patent publication US20250388694A1 (BOOSTIMMUNE, published 2025).

T1: mouse TCTP (mouse, UniProt P63028 1-172)
T1 sequence (looked up): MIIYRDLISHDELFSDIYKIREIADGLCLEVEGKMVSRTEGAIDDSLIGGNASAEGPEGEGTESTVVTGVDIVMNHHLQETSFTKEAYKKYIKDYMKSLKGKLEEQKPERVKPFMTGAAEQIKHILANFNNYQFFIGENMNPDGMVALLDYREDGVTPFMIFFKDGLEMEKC

T2: mouse TCTP in which the 13th leucine was replaced with methionine (mouse, UniProt P63028 1-172)
T2 construct: One of several mouse-to-human replacement mutants; also called mouse TCTP L13M
T2 sequence (looked up): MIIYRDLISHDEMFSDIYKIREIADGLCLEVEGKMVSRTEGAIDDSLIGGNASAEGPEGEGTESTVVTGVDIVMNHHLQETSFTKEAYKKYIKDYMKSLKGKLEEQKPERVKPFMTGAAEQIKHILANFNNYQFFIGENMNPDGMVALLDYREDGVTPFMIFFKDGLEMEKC

T3: Human TCTP (translationally controlled tumor protein) (human, UniProt P13693 1-172)
T3 construct: also called HRF; Tpt1
T3 sequence: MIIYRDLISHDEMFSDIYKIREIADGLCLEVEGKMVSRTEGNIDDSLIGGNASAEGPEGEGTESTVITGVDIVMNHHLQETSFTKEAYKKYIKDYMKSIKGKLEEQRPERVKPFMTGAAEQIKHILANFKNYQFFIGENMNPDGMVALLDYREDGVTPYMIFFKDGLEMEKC


Key:
mouse TCTP = target: T1, mouse TCTP; experiment: ELISA on mouse TCTP, binder titrated as scFv (axis [scFv] Log(nM)), OD450 [panel Mouse TCTP]
[1] = target: T2, mouse TCTP in which the 13th leucine …; experiment: ELISA on mouse TCTP mutants
[2] = target: T3, Human TCTP (translationally controlled …); experiment: SPR, Biacore 8K, human TCTP immobilised on CM5 chip, antibody as analyte, 1:1 model
Experimental: The antigen binding capacity of antibodies selected in Example 1 was analyzed using a SPR technique. The device used was Biacore 8K (Ge Healthcare). Human TCTP was immobilized on a chip, and antibodies were shed at 6 or 7 different concentrations. A CM5 chip (GE Healthcare, Cat. 29-1275-56), a regeneration buffer (10 mM glycine-HCl (GE Healthcare)), and a driving buffer HBS-EP+, and the like were used. For kinetic analysis, the binding time was set to 100 or 120 seconds, the flow rate was set to 30 or 50 μl/min in the binding phase, and in the dissociation phase, the dissociation time was set to 300 or 360 seconds, and the flow rate was set to 30 or 50 μl/min. The fitting was carried out using a 1:1 combined model, and BIACore Evaluation Software (GE healthcare) was used as the evaluation software.

[3] = target: T3, Human TCTP (translationally controlled …); experiment: ELISA, selection of hybridoma antibodies

Binder | binding result (mouse TCTP) | binding result [1] | Kd [2] | binding result [3]
Ab10 (antibody, V domains shown, also called antibody Ab10; parent antibody) VH: not shown VL: QSVVTQPPSVSAAPGQKVTISCSGSSSNIGNKKVSWYQQLPVTAPKLLIYDDNKRPSGIPDRFSGSKSGTSATLGITGLQTGDEADYYCATWDSSLRAVVFGGGTKLTVL | binds | binds | 0.224 nM | 
Ab16 (antibody, V domains shown, also called antibody Ab16) VH: QVQLQQSGPGLVKPSQTLSLTCAISGDSVSSNSAAWNWIRQSPSRGLEWLGRTYYKSKWYNDYAVSVKSRMTINPDTSKNQFSLQLNSVTPEDTAVYYCARGGSAVFDYWGQGTLVTVSS VL: not shown |  |  |  | binds
